Publication PMC7729979, “A protein of the metallo-hydrolase/oxidoreductase superfamily with both beta-lactamase and ribonuclease activity is linked with translation in giant viruses” (Scientific Reports, 2020)

What was measured:
[1] = molecular target: TupBlac (Tupanvirus deep ocean MBL fold protein AUL78925.1) (Tupanvirus deep ocean, UniProt A0AC62AAK8); test: LC-MS of penicillin G hydrolysis and benzylpenilloic acid formation; assay type: biochemical; conditions: sulbactam 10 µg/mL, penicillin G 10 µg/mL, room temperature, up to 48 h; inhibition qualitative, mechanism not determined
[2] = system: O=C(Cc1cccs1)N[C@@H]1C(=O)N2C(C(=O)O)=C(/C=C/c3ccc([N+](=O)[O-])cc3[N+](=O)[O-])CS[C@H]12; test: purified protein; conditions: PBS pH 7.4, promiscuous beta-lactamase activity

| Molecule | LC-MS of penicillin G hydrolysis and benzylpenilloic acid formation [1] | Km [2] | kcat [2] |
| --- | --- | --- | --- |
| CC1(C)[C@H](C(=O)O)N2C(=O)C[C@H]2S1(=O)=O [sulbactam] | both penicillin G degradation and benzylpenilloic acid appearance were inhibited by sulbactam | – | – |
| TupBlac (Tupanvirus deep ocean MBL fold protein AUL78925.1) (Tupanvirus deep ocean) | – | 160 ± 5 µM | 8.8 × 10^–4 ± 8.5 × 10^–5 s^−1 |
